To fix the notation:
B1: Peripheral plasma membrane protein CASK, residues 488 to 569; numbered along this chain, O14936 (parent)
chain: VRLVQFQKNTDEPMGITLKMNELNHCIVARIMHGGMIHRQGTLHVGDEIREINGISVANQTVEQLQKMLREMRGSITFKIVP

± gives the uncertainty stated by the source.

The data set covers variants of B1. The data set is described as follows: abundance fitness (aPCA) (normalised: wild type 0, dead -1); higher = more abundant; growth selection in yeast, the domain comes from the species named. The settings on record: Homo sapiens.
For the variant VRLVQFQKNTDEPMGITLKMNELNHCIVARIMHGGMIHRQGTLHVGDPIREINGISVANQTVEQLQKMLREMRGSITFKIVP [E48P], the abundance fitness is -1.09 ± 0.24.
As for VRLVQFQKNTDEPMGITLKMNELNHCIVARIMHGGMIHRQGTLHVGDSIREINGISVANQTVEQLQKMLREMRGSITFKIVP [E48S], the figure is -0.071 ± 0.04; as for VRLVQFQKNTDEPMGITLKMNELNHCIVARIMHGGMIHRQGTLHVGDWIREINGISVANQTVEQLQKMLREMRGSITFKIVP [E48W], -0.059 ± 0.036; as for VRLVQFQKNTDEPMGITLKMNELNHCIVARIMHGGMIHRQGTLHVGDQIREINGISVANQTVEQLQKMLREMRGSITFKIVP [E48Q], -0.069 ± 0.051.
Consider VRLVQFQKNTDEPMGITLKMNELNHCIVARIMHGGMIHRQGTLHVGDVIREINGISVANQTVEQLQKMLREMRGSITFKIVP [E48V], for which the abundance fitness was -0.06 ± 0.033.
Take VRLVQFQKNTDEPMGITLKMNELNHCIVARIMHGGMIHRQGTLHVGDTIREINGISVANQTVEQLQKMLREMRGSITFKIVP [E48T]: the abundance fitness is -0.123 ± 0.053.
For VRLVQFQKNTDEPMGITLKMNELNHCIVARIMHGGMIHRQGTLHVGDRIREINGISVANQTVEQLQKMLREMRGSITFKIVP [E48R], the abundance fitness was -0.037 ± 0.028.
In the case of VRLVQFQKNTDEPMGITLKMNELNHCIVARIMHGGMIHRQGTLHVGDECREINGISVANQTVEQLQKMLREMRGSITFKIVP [I49C], the abundance fitness was -0.855 ± 0.17.
Consider VRLVQFQKNTDEPMGITLKMNELNHCIVARIMHGGMIHRQGTLHVGDEPREINGISVANQTVEQLQKMLREMRGSITFKIVP [I49P], for which the abundance fitness is -0.743 ± 0.15.
For the variant VRLVQFQKNTDEPMGITLKMNELNHCIVARIMHGGMIHRQGTLHVGDELREINGISVANQTVEQLQKMLREMRGSITFKIVP [I49L], the abundance fitness is -0.089 ± 0.04.
As for VRLVQFQKNTDEPMGITLKMNELNHCIVARIMHGGMIHRQGTLHVGDEMREINGISVANQTVEQLQKMLREMRGSITFKIVP [I49M], the figure is -0.264 ± 0.097.
VRLVQFQKNTDEPMGITLKMNELNHCIVARIMHGGMIHRQGTLHVGDEKREINGISVANQTVEQLQKMLREMRGSITFKIVP [I49K]: the abundance fitness is -0.823 ± 0.16.
As for VRLVQFQKNTDEPMGITLKMNELNHCIVARIMHGGMIHRQGTLHVGDEVREINGISVANQTVEQLQKMLREMRGSITFKIVP [I49V], the figure is 0.001 ± 0.035.
As for VRLVQFQKNTDEPMGITLKMNELNHCIVARIMHGGMIHRQGTLHVGDEWREINGISVANQTVEQLQKMLREMRGSITFKIVP [I49W], the abundance fitness is -1.04 ± 0.17.
In the case of VRLVQFQKNTDEPMGITLKMNELNHCIVARIMHGGMIHRQGTLHVGDESREINGISVANQTVEQLQKMLREMRGSITFKIVP [I49S] it was -0.886 ± 0.12; in that of VRLVQFQKNTDEPMGITLKMNELNHCIVARIMHGGMIHRQGTLHVGDEEREINGISVANQTVEQLQKMLREMRGSITFKIVP [I49E], -0.992 ± 0.13; in that of VRLVQFQKNTDEPMGITLKMNELNHCIVARIMHGGMIHRQGTLHVGDEAREINGISVANQTVEQLQKMLREMRGSITFKIVP [I49A], -0.856 ± 0.089.
As to VRLVQFQKNTDEPMGITLKMNELNHCIVARIMHGGMIHRQGTLHVGDENREINGISVANQTVEQLQKMLREMRGSITFKIVP [I49N], the abundance fitness is -0.804 ± 0.2.
As for VRLVQFQKNTDEPMGITLKMNELNHCIVARIMHGGMIHRQGTLHVGDEFREINGISVANQTVEQLQKMLREMRGSITFKIVP [I49F], the abundance fitness is -0.721 ± 0.17.
In the case of VRLVQFQKNTDEPMGITLKMNELNHCIVARIMHGGMIHRQGTLHVGDEGREINGISVANQTVEQLQKMLREMRGSITFKIVP [I49G] it was -1.05 ± 0.11; in that of VRLVQFQKNTDEPMGITLKMNELNHCIVARIMHGGMIHRQGTLHVGDETREINGISVANQTVEQLQKMLREMRGSITFKIVP [I49T], -0.576 ± 0.095; in that of VRLVQFQKNTDEPMGITLKMNELNHCIVARIMHGGMIHRQGTLHVGDEDREINGISVANQTVEQLQKMLREMRGSITFKIVP [I49D], -0.24 ± 0.2.
VRLVQFQKNTDEPMGITLKMNELNHCIVARIMHGGMIHRQGTLHVGDEYREINGISVANQTVEQLQKMLREMRGSITFKIVP [I49Y]: the abundance fitness is -0.998 ± 0.27.
Consider VRLVQFQKNTDEPMGITLKMNELNHCIVARIMHGGMIHRQGTLHVGDEQREINGISVANQTVEQLQKMLREMRGSITFKIVP [I49Q], for which the abundance fitness was -1 ± 0.24.
On to VRLVQFQKNTDEPMGITLKMNELNHCIVARIMHGGMIHRQGTLHVGDERREINGISVANQTVEQLQKMLREMRGSITFKIVP [I49R], for which the abundance fitness is -0.858 ± 0.073.
VRLVQFQKNTDEPMGITLKMNELNHCIVARIMHGGMIHRQGTLHVGDEIKEINGISVANQTVEQLQKMLREMRGSITFKIVP [R50K]: the abundance fitness amounted to 0.028 ± 0.045.
Take VRLVQFQKNTDEPMGITLKMNELNHCIVARIMHGGMIHRQGTLHVGDEIGEINGISVANQTVEQLQKMLREMRGSITFKIVP [R50G]: the abundance fitness is -0.315 ± 0.034.
In the case of VRLVQFQKNTDEPMGITLKMNELNHCIVARIMHGGMIHRQGTLHVGDEIMEINGISVANQTVEQLQKMLREMRGSITFKIVP [R50M] it was 0 ± 0.054; in that of VRLVQFQKNTDEPMGITLKMNELNHCIVARIMHGGMIHRQGTLHVGDEIAEINGISVANQTVEQLQKMLREMRGSITFKIVP [R50A], -0.025 ± 0.033; in that of VRLVQFQKNTDEPMGITLKMNELNHCIVARIMHGGMIHRQGTLHVGDEIIEINGISVANQTVEQLQKMLREMRGSITFKIVP [R50I], 0.034 ± 0.089.
For VRLVQFQKNTDEPMGITLKMNELNHCIVARIMHGGMIHRQGTLHVGDEIFEINGISVANQTVEQLQKMLREMRGSITFKIVP [R50F], the abundance fitness was -0.211 ± 0.15.
In the case of VRLVQFQKNTDEPMGITLKMNELNHCIVARIMHGGMIHRQGTLHVGDEIEEINGISVANQTVEQLQKMLREMRGSITFKIVP [R50E], the abundance fitness was -0.068 ± 0.037.
As for VRLVQFQKNTDEPMGITLKMNELNHCIVARIMHGGMIHRQGTLHVGDEICEINGISVANQTVEQLQKMLREMRGSITFKIVP [R50C], the figure is 0.038 ± 0.056; as for VRLVQFQKNTDEPMGITLKMNELNHCIVARIMHGGMIHRQGTLHVGDEIHEINGISVANQTVEQLQKMLREMRGSITFKIVP [R50H], -0.148 ± 0.11.

(Values after the Human Domainome abundance scans (Beltran et al. 2025).)
